T1: binding between SEMG2 and CD27 (Homo sapiens, UniProt Q02383)
T1 sequence (Q02383 24-582): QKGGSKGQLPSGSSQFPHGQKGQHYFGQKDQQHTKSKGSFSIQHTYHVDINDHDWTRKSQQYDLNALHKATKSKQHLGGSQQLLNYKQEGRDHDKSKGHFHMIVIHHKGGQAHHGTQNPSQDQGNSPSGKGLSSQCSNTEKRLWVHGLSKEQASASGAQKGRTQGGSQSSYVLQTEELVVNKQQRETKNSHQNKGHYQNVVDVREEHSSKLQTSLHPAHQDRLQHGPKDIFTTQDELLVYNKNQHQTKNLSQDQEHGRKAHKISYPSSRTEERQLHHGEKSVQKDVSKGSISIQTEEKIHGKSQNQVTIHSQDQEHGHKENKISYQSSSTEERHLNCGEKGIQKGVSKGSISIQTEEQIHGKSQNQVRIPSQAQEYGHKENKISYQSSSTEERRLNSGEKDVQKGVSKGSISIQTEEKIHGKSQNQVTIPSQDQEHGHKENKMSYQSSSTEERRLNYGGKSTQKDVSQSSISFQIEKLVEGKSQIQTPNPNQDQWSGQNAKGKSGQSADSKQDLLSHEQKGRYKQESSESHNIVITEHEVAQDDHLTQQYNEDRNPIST

B1: MM05: mouse monoclonal antibody against SEMG2(497-509), mIgG1 kappa, VH SEQ ID NO:36, VL SEQ ID NO:43 (antibody, V domains shown)
VH: QVQLQQPGAELVRPGASVKLSCEASGYTFTSYWMNWVKQRPGQGLEWIGMIDPSDSETHYNQMFKDKATLTVDKSSSTAYMQLSSLTSEDSAVYYCARYLGGKEGSFDYWGQGTTLTVSS
VL: DIVMSQSPSSLAVSAGEKVTMSCKSSQSLLNSRTRKNYLAWYQQKPGQSPKLLIYWASTRESGVPDRFTGSGSGTDFTLTISSVQAEDLAVYYCKQSYSLPWTFGGGTKLEIKRA
modifications: UNSURE (1)..(120) VH; UNSURE (1)..(115) VL
B2: MM02: mouse monoclonal antibody against SEMG2(497-509), mIgG2b kappa, VH SEQ ID NO:35, VL SEQ ID NO:42 (antibody, V domains shown)
VH: QIQLVQSGPEVKKPGETVRISCKASGYTLTTAGIQWVQKMPGKGLKWIGWINTHSGVPEYAEDFKGRFAFFLETSASTAYLQISNLKNEDTATYFCARLGLLGYWGQGTTLTVSS
VL: DILLTQSPAILSVSPGERVSFSCRASQSIGTTIHWYQQRTNGSPRLLIKYASESISGIPSRFSGSGSGTDFTLSINSVESEDIADYYCQQSNSWPWTFGGGTKLEIKRA
modifications: UNSURE (1)..(115) VH; UNSURE (1)..(109) VL

Columns and labels:
[1] = tested on: A375 human melanoma cells; assay: Tumor cell killing by activated PBMC, caspase-3/7 apoptosis; type: cell-based; settings: A375, SEMG2-positive, co-culture with activated PBMC 10:1
Protocol: (§1) To test the above hypothesis, the effects of different epitope-specific antibodies on tumor cell killing by activated PBMC were compared. Specifically, A375 human melanoma and LOVO human colorectal cancer cells highly expressing SEMG2 were seeded in 96-well plate. Human peripheral blood mononuclear cells (PBMC; #70025, Stem Cell) were activated with 100 ng/mL of CD3 antibody, 100 ng/mL, of CD28 antibody, and 1.0 ng/mL of IL2 (#317303; #302913; #589102, BioLegend), respectively, and co-cultured with the above tumor cells at a ratio of 10:1 in presence of fluorescent caspase-3/7 substrate (#4440, Essen Bioscience). After 1.0 hours, cells were observed under fluorescence microscope.
(§2) To verify the above hypothesis, tumor cells with high SEMG2 expression (A375, LOVO) and SEMG2-negative tumor cells (DLD1, NCM460 and NCI-H1975) were selected. Different antibodies (irrelevant mouse IgG antibodies, MM02 or MM05 antibodies) were added during the PBMC killing experiments for the tumor cells.
(§3) To verify the effect of the human antibodies on the function of activated PBMC on tumor cell killing, A375 and LOVO cells were co-cultured with activated PBMC, and H88-93, H88-96, or H88-67 antibody was added at the same time, and the apoptosis ratio of tumor cells were detected.

[2] = tested on: LOVO human colorectal cancer cells; assay: as above; type: cell-based; settings: SEMG2-positive, co-culture with activated PBMC 10:1
Protocol: as §1, §2, §3

[3] = biological target: T1, binding between SEMG2 and CD27; assay: Antibody blocking ELISA of SEMG2 binding to CD27-Fc; settings: for effect on the binding between SEMG2 and CD27: antibody 10 μg/mL; for blocking of binding between SEMG2 and CD27 with increasing antibody concentration: wide range of concentration
Text: Because SEMG2 (497-509) sequence fragment is the key epitope of SEMG2 binding to CD27, and has a relatively short sequence, so SEMG2 (497-509) was used as an immunogen to prepare antibodies, which is theoretically easier to obtain functional antibody molecules with the function of blocking the binding between SEMG2 and CD27 than using full-length SEMG2 to prepare antibodies. For direct comparison, the differences in effective concentration of producing antibody by the two methods were verified using ELISA in the examples. Antibodies produced with SEMG2 (497-509) as immunogen and antibodies produced with full-length SEMG2 were added into the enzyme-linked immunosorbent assay (ELISA) reaction system at different concentrations (10^-2, 10^-1, 10^0, 10^1, 10^2, 10^3, 10^4 μg/mL), and the ELISA binding values were measured. The specific steps of enzyme-linked immunosorbent assay are as follows: (1) Dissolve SEMG2 protein antigen with 50 mM carbonate coating buffer (pH 9.6) to make the antigen concentration 10 μg/mL, and add into 96-well ELISA plate (purchased from Corning) at 100 μL/well, place at 4° C. overnight. (2) After discarding the coating solution on the next day, wash with PBST for three times, add 150 μL of 1% BSA to each well, and block for 2 hours at 37° C. […] (4) After washing for 5 times with PBST, add 100 of diluted HRP-labeled anti-human Fe secondary antibody, and incubate at 37° C. for 1 hour. (5) After washing with PBST for 5 times, 20 min after developing with chromogenic agent, the A450 absorption value was read using the microplate reader.
The SEMG2 (497-509) sequence was used to synthesize a polypeptide and coupled to a VLP carrier for immunization; HEK293 cells were used to express the full-length SEMG2 protein, and the purity was tested to reach 92%, and the binding activity of SEMG2 protein to CD27 was verified by ELISA. The protein and polypeptide antigens were used to immunize 10 mice respectively, and multiple immunizations were performed to enhance the effect: (1) The first immunization, 50 μg/mice of antigen, multiple subcutaneous injections together with Freund's complete adjuvant, with an interval of 3 weeks; (2) the second immunization; the same dosage and route as above, with incomplete Freund's adjuvant, and with an interval of 3 weeks; (3) the third immunization, the same dosage as above, without adjuvant, intraperitoneal injection with an interval of 3 weeks; (4) the booster immunization, the dose is 50 μg, intraperitoneal injection. 3 days after the last injection, blood was collected to measure its titer and the immune effect, and mice with higher titers were selected for hybridoma fusion screening. After subcloning, the binding of the monoclonal antibodies to the target antigens was detected by ELISA, and the function of different monoclonal antibodies in blocking the binding between SEMG2 and CD27 was measured by ELISA.
First, SEMG2(497-509) epitope-specific antibodies (for example, MM02, MM05) were compared with other epitope-specific antibodies (for example, HPA042767) for their function in blocking binding between SEMG2 and CD27 at different concentration ranges. […] The blocking function of different antibodies (irrelative mouse IgG, MM02, MM05, HPA042767) on binding between SEMG2 and CD27 was analyzed by the ELISA experiment as described in Example 11.
Further, the effects of different antibodies on the binding between SEMG2 and CD27 were compared under the condition of the same antibody concentration. In the ELISA, the same concentration (10 μg/mL) of antibody was used, and the strength of the binding between SEMG2 and CD27 was measured. […]

Row | Molecule | apoptosis tumor cell ratio / killing by activated PBMC [1] | apoptosis tumor cell ratio / killing by activated PBMC [2] | effect on the binding between SEMG2 and CD27 [3] | blocking of binding between SEMG2 and CD27 with increasing antibody concentration [3]
1 | B1 | significantly increased the killing | significantly increased the killing | significantly reduced the binding | gradually decreased
2 | B2 | significantly increased the killing | significantly increased the killing | significantly reduced the binding | gradually decreased
